According to US11466286B2, “Methods and compositions for conferring and/or enhancing herbicide tolerance using protoporphyrinogen oxidase or variant thereof” (FarmHannong Co., Ltd., priority 2016, dated 2022):

B1: CyPPO10 WT: PPO protein derived from Thermosynechococcus elongatus BP-1, amino acid sequence SEQ ID NO: 2 (protein)
chain: MIEVDVAIVGGGLSGLSVAWRLQRSAPHYSGVLLEASDRLGGNITTQAAEGFVWELGPNSFAPTPALLQLIAEVGLHSELIRGDRHLPRYIYWRGELYPLEPTRPLALATSNLLSPWGKVRAALGALGFVPPYLGSGDESVDSFFRRHLGQEVAERLVAPFVSGVYAGDPQQLSAAAAFRRIAQLEKLGGSLIAGALRLRRQQPPQPKPPAQVQMRPGELGSFREGLAALPRAIAQQLKAPLHLQTPVEAITPEPKGGYLLRSGEQTWHARSVVLATPAYQTAELVAPFQPAIARALATIPYPTVACVVLAYPAGLGRSVRPGFGVLVPRGQGIRTLGTIWSSCLFPQRTPAGWQVFTSFIGGATDPDLASLREEAIVEQVQQDLTRLLDLPAAKARLLGMKVWRRAIPQYIVGYPQQWQQVTHALTQTPGLFLCSNYAEGVALGDRVEHGNRTAAAVAAYLAGGQS
modifications: Synthetic CyPPO10
B2: CyPPO13 WT: PPO derived from Synechococcus sp. JA-3-3Ab strain, amino acid sequence SEQ ID NO: 4 (protein)
chain: MNPATPEPLNAEVVVIGAGISGLTLAWRLQQGLSARGGSPQAVLLAEASSRVGGCISTQSKDGYRWEEGPNSFTPTPALLNLIAEVGLTDQLVLADAKLPRYIYWEGALLPVPLSPAAALGSRLLSVGGKLRALQGLLGFVPPPPGHEETVRQFFRRQLGSEVAERLVEPFTSGVYAGDPDQLSAVAAFPRVAGLEERYGSLFAGALQALRQRPQPSPAAIQPPPKRGQLGNLRQGLQQLPEALAQKLGDSLRLGWRALQLKRAGELYWVGFETPEGSRWVAARQVVLALPAYEAAALLQELNPPASQLLAEILYPPVAVVALAYPQEALPQPLRGFGHLIPRSQGLRTLGTIWASCLFPERAPQGYHSFLSFLGGATDAALARRRGIPPIPALSPEERAQIAHAELSQVLLTRRAEPVYLGERLWPRAIPQYTLGHRQRIAQVQAHLASQTPGIWVCANYLDGVALGDCVRRAEALAQQLLSQV
modifications: Synthetic CyPPO13
B3: CyPPO10 A167L + F360M: CyPPO10 (SEQ ID NO: 2) PPO variant (protein)
chain: MIEVDVAIVGGGLSGLSVAWRLQRSAPHYSGVLLEASDRLGGNITTQAAEGFVWELGPNSFAPTPALLQLIAEVGLHSELIRGDRHLPRYIYWRGELYPLEPTRPLALATSNLLSPWGKVRAALGALGFVPPYLGSGDESVDSFFRRHLGQEVAERLVAPFVSGVYLGDPQQLSAAAAFRRIAQLEKLGGSLIAGALRLRRQQPPQPKPPAQVQMRPGELGSFREGLAALPRAIAQQLKAPLHLQTPVEAITPEPKGGYLLRSGEQTWHARSVVLATPAYQTAELVAPFQPAIARALATIPYPTVACVVLAYPAGLGRSVRPGFGVLVPRGQGIRTLGTIWSSCLFPQRTPAGWQVFTSMIGGATDPDLASLREEAIVEQVQQDLTRLLDLPAAKARLLGMKVWRRAIPQYIVGYPQQWQQVTHALTQTPGLFLCSNYAEGVALGDRVEHGNRTAAAVAAYLAGGQS
modifications: Synthetic CyPPO10
B4: CyPPO10 A167C + F360I: CyPPO10 (SEQ ID NO: 2) PPO variant (protein)
chain: MIEVDVAIVGGGLSGLSVAWRLQRSAPHYSGVLLEASDRLGGNITTQAAEGFVWELGPNSFAPTPALLQLIAEVGLHSELIRGDRHLPRYIYWRGELYPLEPTRPLALATSNLLSPWGKVRAALGALGFVPPYLGSGDESVDSFFRRHLGQEVAERLVAPFVSGVYCGDPQQLSAAAAFRRIAQLEKLGGSLIAGALRLRRQQPPQPKPPAQVQMRPGELGSFREGLAALPRAIAQQLKAPLHLQTPVEAITPEPKGGYLLRSGEQTWHARSVVLATPAYQTAELVAPFQPAIARALATIPYPTVACVVLAYPAGLGRSVRPGFGVLVPRGQGIRTLGTIWSSCLFPQRTPAGWQVFTSIIGGATDPDLASLREEAIVEQVQQDLTRLLDLPAAKARLLGMKVWRRAIPQYIVGYPQQWQQVTHALTQTPGLFLCSNYAEGVALGDRVEHGNRTAAAVAAYLAGGQS
modifications: Synthetic CyPPO10

Key:
[1] = test system: BT3 (ΔPPO) E. coli with CyPPO10m-6 (E225G, G258S, Q266L, T336I, V356F, F360M, A364D, R406G, W419R; SEQ ID NO: 131); experiment: Growth of BT3 with error-prone PCR mutant of CyPPO10; type: cell-based; conditions: up to 200 μM herbicide
[2] = test system: CyPPO13 (Synechococcus sp. JA-3-3Ab PPO, SEQ ID NO: 4) variant F373L, MBP fusion; experiment: PPO inhibition assay; type: biochemical; conditions: herbicide 0-5,000 nM, 50 μM substrate
Experimental: (§1) The enzyme activities of PPO protein and PPO protein variants were examined, and inhibition assay by PPO-inhibiting herbicides was conducted. It was confirmed that the PPO protein has low water-solubility, but in case of being expressed as a fusion protein with MBP (maltose binding protein) (MBP-PPO), the PPO protein is able to be stably expressed as water-soluble form. Therefore, the wild type and variant proteins which were expressed in the form of fusion protein with MBP were used in the present test (refer to FIG. 4).
(§2) At first, a substrate of PPO protein, Protoporphyrinogen IX was synthesized. This process was performed in the space where nitrogen gas is streamed. 6 mg of protoporphyrin IX was dissolved in 20% (v/v) EtOH 20 ml, and stirred under dark condition for 30 minutes. The obtained protoporphyrinogen IX solution was put into a 15 ml screw tube in an amount of 800 and flushed with nitrogen gas for 5 minutes. To this, 1 g of sodium amalgam was added and vigorous shaking was performed for 2 minutes. The lid was open to exhaust hydrogen gas in the tube. Thereafter, the lid was closed and incubated for 3 minutes. The […] was filtered using syringe and cellulose membrane filter. To 600 μl of the obtained […], 2M MOPS [3-(N-morpholino)propanesulfonic acid] was added in an amount of approximately 300 thereby adjusting pH to 8.0. To determine the enzyme activity of PPO protein, a reaction mixture was prepared with the following composition (based on 10 ml): 50 mM Tris-Cl (pH 8.0); 50 mM NaCl; 0.04% (v/v) Tween 20; 40 mM glucose (0.072 g); 5 units glucose oxidase (16.6 mg); and 10 units catalase (1 μl).
(§3) Two hundred microliters (200 μl) of reaction mixture containing a purified PPO protein were placed in 96 well plates, and preincubated for 30 min at room temperature to reduce the oxygen concentration by the reaction of glucose oxidase-catalase. The mineral oil was layered and then the reaction was initiated by adding the substrate, […], to a final concentration of 50 μM. The reaction proceeded at room temperature for 30 min and the fluorescence of protoporphyrin IX was measured using Microplate reader (Sense, Hidex) (excitation: 405 nm; emission: 633 nm). To calculate the PPO enzyme activity, protoporphyrinogen IX solution was kept open in the air to oxidize the solution (overnight). To this, 2.7N HCl was added, and the absorbance at 408 nm was measured. A standard curve was generated using standard protoporphyrin IX, and the PPO activity was measured by calibration of protoporphyrin IX using the standard curve of protoporphyrin IX.
(§4) The final concentration of each herbicide was as follows: […]

[3] = test system: CyPPO13 (Synechococcus sp. JA-3-3Ab PPO, SEQ ID NO: 4) variant F373I, MBP fusion; experiment: PPO inhibition assay; type: biochemical; conditions: herbicide 0-5,000 nM, 50 μM substrate
Experimental: as §1, §2, §3, §4

[4] = test system: CyPPO13 (Synechococcus sp. JA-3-3Ab PPO, SEQ ID NO: 4) variant F373M, MBP fusion; experiment: PPO inhibition assay; type: biochemical; conditions: herbicide 0-5,000 nM, 50 μM substrate
[5] = test system: soybean transformed with CyPPO10 A167L+F360M; experiment: Herbicide tolerance of soybean; type: in vivo; conditions: T1, 150 μM saflufenacil spray, 5 days
[6] = test system: A. thaliana T3 lines with CyPPO10 wild type or mutants (F360M, F360I, F360L, F360C, A167C), CyPPO13 wild type or mutants (F373M, F373C, F373I, A177C …); experiment: Seed germination of A. thaliana transformants on herbicide media; type: in vivo, Arabidopsis thaliana; conditions: 25 μM glufosinate, 7 days after sowing
[7] = test system: PPO-deficient BT3 E. coli (ΔPPO); experiment: Tiafenacil tolerance of BT3 E. coli transformed with CyPPO10, CyPPO13 or AtPPO1 genes (pACBB vector); type: cell-based; conditions: tiafenacil 0 μM; PPO function complementation
Experimental: After transforming PPO-deficient BT3 E. coli (ΔPPO) with CyPPO10 or CyPPO13, the transformed BT3 (ΔPPO) was cultured on LB agar plates containing PPO-inhibiting herbicide to examine the growth level of the transformed BT3 (ΔPPO). BT3 (ΔPPO) strain was obtained from Hokkaido University (Japan). The BT3 (ΔPPO) strain is deficient in hemG-type PPO and has kanamycin tolerance (refer to “Watanabe et al., Dual targeting of spinach protoporphyrinogen oxidase II to mitochondria and chloroplasts by alternative use of two in-frame […], JBC 2001 276(23):20474-20481; Che et al., Molecular Characterization and Subcellular Localization of Protoporphyrinogen Oxidase in Spinach Chloroplasts, Plant Physiol. 2000 September; 124(1):59-70”).
The cloned plasmid was added to 100 μl of BT3 competent cell (Hokkaido University; Japan) respectively, thereby transforming by a heat shock method. The transformed E. coli with each PPO gene was cultured in LB (Luria-Bertani) agar media comprising Chloramphenicol (Duchefa).
For seed culture of E. coli transformed with respective genes, each single colony of E. coli transformant as provided above was cultured in 3 ml of LB broth containing chloramphenicol overnight (220 rpm, 37° C.), and 50 to 100 μl were subcultured in a new 3 ml of LB broth, and they were cultured until absorbance (OD600) became 0.5 to 1, and they were diluted with LB broth to absorbance (OD600) of 0.5. The diluted solution was serially diluted again 5 times by a factor of one tenth with LB broth. […] The LB Agar media were incubated at 37° C., under light condition, and level of inhibiting growth was observed after 16 to 20 hours of incubation.
Plant physiol. 2003 133:736-747).

[8] = test system: A. thaliana; experiment: Seed germination of A. thaliana transformants on ½ MS media containing herbicides; type: in vivo, Arabidopsis thaliana; conditions: T3 lines; 25 μM glufosinate, 25 μM glufosinate+70 nM tiafenacil, or 25 μM glufosinate+30 nM tiafenacil+40 nM saflufenacil; 7 days after sowing
Source text: T3 generation seeds of each transformant were sown in ½ MS media containing herbicides. Col-0 ecotype (wild type Arabidopsis) seeds were used as a control. The kinds of herbicides and concentration are as follows:
In FIGS. 31a to 31c, 10-3 refers to CyPPO10 wild type, 10FM-4-7 to the CyPPO10 F360M transgenic line, 10FL-1-9 to the CyPPO10 F360L transgenic line, 10FC-3-5 to the CyPPO10 F360C transgenic line, 10AC-5-4 to the CyPPO10 A167C transgenic line, 13-1 to CyPPO13 wild type, 13FM-3-1 to the CyPPO13 F373M transgenic line, 13FC-1-1 to the CyPPO13 F373C transgenic line, 13FI-2-1 to the CyPPO13 F373I transgenic line, 13AC-1-3 to the CyPPO13 A177C transgenic line, CyPPO13_ALFL to the CyPPO13 A177L+F373L transgenic line, and CyPPO13_ALFI to the CyPPO13 A177L+F373I transgenic line, respectively.

[9] = test system: CyPPO10; experiment: PPO enzyme activity and IC50 by herbicides, CyPPO10 wild type and variants (MBP-PPO fusion); type: biochemical, Thermosynechococcus elongatus BP-1; conditions: PPO enzyme activity of CyPPO10 protein, wild type = 100
In short: (§5)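 MBP-fused wild-type and variant CyPPO10 or CyPPO13 were expressed in E. coli BL21(DE3) and purified. After a 30 min oxygen-depleting preincubation with glucose oxidase-catalase in 50 mM Tris-Cl pH 8.0, 50 mM NaCl and 0.04% Tween 20, reactions used 50 μM substrate for 30 min at room temperature. Protoporphyrin IX fluorescence (ex 405/em 633 nm) was quantified against a standard curve.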

[10] = test system: CyPPO13; experiment: PPO enzyme activity and IC50 by herbicides, CyPPO13 wild type and variants (MBP-PPO fusion); type: biochemical, Synechococcus sp. JA-3-3Ab; conditions: PPO enzyme activity of CyPPO13 protein, wild type = 100
In short: as §5

[11] = test system: A. thaliana; experiment: Herbicide spray on A. thaliana transformants, injury level judged at the 7th day; type: in vivo, Arabidopsis thaliana; conditions: A. thaliana transformants T2, tiafenacil 25 μM spray

Molecule | Growth of BT3 transformant on medium containing no herbicide [7] | Seed germination in media containing herbicides [8] | Activity (%) [9] [%] | Average injury index [11] | also measured
CC(C)N(C)S(=O)(=O)NC(=O)c1cc(-n2c(=O)cc(C(F)(F)F)n(C)c2=O)c(F)cc1Cl [Saflufenacil] |  |  |  |  | cell viability [1]: cell viability similar to that of cells with wild type CyPPO10; IC50 [2]: 1470 nM; IC50 [3]: 1480 nM; IC50 [4]: 481 nM; damage level [5]: no damage
CP(=O)(O)CCC(N)C(=O)O (stereo not shown) [glufosinate] |  |  |  |  | seed germination [6]: germinated
B1 | recovered | germinated | 100 |  | 
B2 | recovered | germinated |  |  | Activity (%) [10]: 100%
B3 |  |  | 80 | 2 (Over 20% and less than 30% of the plant was scorched) | 
B4 |  |  | 48 | 2 (Over 20% and less than 30% of the plant was scorched) | 
